From patent US20140274782A1, “AFFINITY REAGENTS AND METHODS FOR DETECTION, PURIFICATION, AND PROTEOMIC ANALYSIS OF METHYLATED PROTEINS” (The Board of Trustees of the Leland Stanford Junior …, priority 2013, published 2014)

How the values were obtained:
G9a and GLP = molecular target: T1, G9a and GLP (Homo sapiens, UniProt Q96KQ7+Q9H9B1); assay: Triple SILAC pull-down after UNC0638 treatment of 293T cells, DMSO/UNC0638 ratio of protein captured by 3×MBT; assay type: cell-based; settings: for Relative to UNC0638 UNC Heavy: UNC0638 in heavy SILAC media; for Relative to UNC0638 UNC Light: UNC0638 in light SILAC media; for Relative to UNC0638 Average: average of UNC Light and UNC Heavy experiments; for Candidate G9a/GLP target: reduced association with 3xMBT after UNC0638 treatment;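 for all read-outs here: mass spectrometry (Q-Exactive) SILAC quantitation, DMSO/UNC0638 ratio computed after subtracting 3×MBTD355N mutant pull-down background, only proteins with at least twofold 3×MBT over mutant signal considered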
T1 construct: endogenous in cells; host or cells: HEK 293T
T1 sequence (Q96KQ7 2-1210 limits assumed): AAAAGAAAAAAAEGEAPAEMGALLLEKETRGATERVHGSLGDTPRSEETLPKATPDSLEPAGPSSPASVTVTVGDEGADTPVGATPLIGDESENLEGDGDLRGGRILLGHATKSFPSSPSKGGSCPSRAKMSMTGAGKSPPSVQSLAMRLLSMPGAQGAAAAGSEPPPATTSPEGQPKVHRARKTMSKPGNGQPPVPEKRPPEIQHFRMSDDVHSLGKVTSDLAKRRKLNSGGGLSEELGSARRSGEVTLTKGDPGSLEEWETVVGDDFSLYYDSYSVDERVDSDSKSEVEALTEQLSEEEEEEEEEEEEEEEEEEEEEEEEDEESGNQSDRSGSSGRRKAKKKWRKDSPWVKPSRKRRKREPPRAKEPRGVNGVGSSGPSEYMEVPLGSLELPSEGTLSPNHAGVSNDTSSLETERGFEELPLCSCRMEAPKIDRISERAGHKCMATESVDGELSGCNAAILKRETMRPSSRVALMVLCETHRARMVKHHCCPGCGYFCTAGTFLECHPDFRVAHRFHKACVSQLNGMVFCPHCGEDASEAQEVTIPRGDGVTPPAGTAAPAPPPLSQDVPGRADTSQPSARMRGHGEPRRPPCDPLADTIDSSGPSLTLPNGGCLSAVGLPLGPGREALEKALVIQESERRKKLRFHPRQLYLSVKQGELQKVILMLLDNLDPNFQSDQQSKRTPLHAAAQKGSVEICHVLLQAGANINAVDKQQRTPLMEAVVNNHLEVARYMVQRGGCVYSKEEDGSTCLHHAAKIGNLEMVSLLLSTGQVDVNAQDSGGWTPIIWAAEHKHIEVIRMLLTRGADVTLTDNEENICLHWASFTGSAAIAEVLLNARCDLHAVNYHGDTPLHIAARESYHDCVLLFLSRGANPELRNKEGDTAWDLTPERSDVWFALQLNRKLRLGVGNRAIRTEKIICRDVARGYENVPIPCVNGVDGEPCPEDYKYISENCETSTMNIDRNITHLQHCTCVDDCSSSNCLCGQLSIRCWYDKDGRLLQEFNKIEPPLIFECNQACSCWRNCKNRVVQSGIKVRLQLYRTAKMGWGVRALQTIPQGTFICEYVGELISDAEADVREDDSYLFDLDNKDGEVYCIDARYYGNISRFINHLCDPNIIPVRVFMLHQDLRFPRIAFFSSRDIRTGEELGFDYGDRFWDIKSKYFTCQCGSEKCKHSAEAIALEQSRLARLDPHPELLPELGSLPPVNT
T1 sequence (Q9H9B1 2-1298 limits assumed): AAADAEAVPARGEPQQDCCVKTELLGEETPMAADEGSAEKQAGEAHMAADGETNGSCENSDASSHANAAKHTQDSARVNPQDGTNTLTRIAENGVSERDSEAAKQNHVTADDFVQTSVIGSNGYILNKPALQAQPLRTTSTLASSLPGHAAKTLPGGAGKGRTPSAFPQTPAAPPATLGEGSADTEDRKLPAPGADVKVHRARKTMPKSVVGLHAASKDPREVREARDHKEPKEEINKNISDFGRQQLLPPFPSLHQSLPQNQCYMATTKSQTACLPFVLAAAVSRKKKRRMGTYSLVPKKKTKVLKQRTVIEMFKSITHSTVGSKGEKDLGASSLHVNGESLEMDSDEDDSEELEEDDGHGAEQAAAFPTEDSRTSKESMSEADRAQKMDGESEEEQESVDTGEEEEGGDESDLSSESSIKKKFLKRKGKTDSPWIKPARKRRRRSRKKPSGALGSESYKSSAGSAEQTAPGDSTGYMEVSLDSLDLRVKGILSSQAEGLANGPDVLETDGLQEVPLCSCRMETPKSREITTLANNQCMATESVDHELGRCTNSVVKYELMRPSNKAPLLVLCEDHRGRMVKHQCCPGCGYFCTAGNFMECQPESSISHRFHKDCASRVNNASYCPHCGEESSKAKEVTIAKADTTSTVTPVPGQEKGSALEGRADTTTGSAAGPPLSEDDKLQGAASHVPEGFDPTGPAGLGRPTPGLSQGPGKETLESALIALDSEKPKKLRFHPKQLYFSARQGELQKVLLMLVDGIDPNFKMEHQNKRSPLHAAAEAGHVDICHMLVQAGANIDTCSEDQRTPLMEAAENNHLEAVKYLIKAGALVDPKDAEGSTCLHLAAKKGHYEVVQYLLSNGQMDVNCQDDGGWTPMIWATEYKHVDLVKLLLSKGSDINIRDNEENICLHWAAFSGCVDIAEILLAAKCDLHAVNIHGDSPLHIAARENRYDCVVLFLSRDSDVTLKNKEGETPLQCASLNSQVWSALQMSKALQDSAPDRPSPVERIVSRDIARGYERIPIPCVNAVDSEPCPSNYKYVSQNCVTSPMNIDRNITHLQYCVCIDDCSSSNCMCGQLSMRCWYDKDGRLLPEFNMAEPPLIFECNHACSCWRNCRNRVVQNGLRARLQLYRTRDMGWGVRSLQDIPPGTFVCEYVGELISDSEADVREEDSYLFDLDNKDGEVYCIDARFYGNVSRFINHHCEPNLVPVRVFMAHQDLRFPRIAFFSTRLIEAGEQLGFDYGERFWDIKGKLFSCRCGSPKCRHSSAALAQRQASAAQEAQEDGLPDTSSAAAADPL

3×MBT domain of L3MBTL1 = assay: Triple SILAC pull-down, 3xMBT/3xMBTD355N ratio (cytoplasmic, nuclear and chromatin fractions of 293T cells); assay type: binding, human; settings: for 3xMBT/D355N UNC Heavy: experiment with UNC0638 in heavy SILAC media; for 3xMBT/D355N UNC Light: experiment with UNC0638 in light SILAC media;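 for all read-outs here: proteins quantified with MaxQuant, requiring at least two unique peptides and quantification in both label directions, normalized to the mean of proteins from a digested loading control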
[1] = SILAC ratio DMSO/UNC0638 of protein pulled down with 3xMBT
[2] = SILAC ratio, pull-down 3xMBT vs 3xMBTD355N
[3] = SILAC ratio DMSO relative to UNC0638, pull-down with 3xMBT, all values in log base 2
[4] = SILAC ratio 3xMBT vs 3xMBTD355N pull-down, 293T cells, all values in log base 2

| Relative to UNC0638 UNC Heavy (G9a and GLP; [1]) [log base 2] | Relative to UNC0638 UNC Light (G9a and GLP; [1]) [log base 2] | Relative to UNC0638 Average (G9a and GLP) [log base 2] | Candidate G9a/GLP target (G9a and GLP) | Relative to UNC0638 UNC Heavy (G9a and GLP; [3]) [log base 2] | Relative to UNC0638 UNC Light (G9a and GLP; [3]) [log base 2] | Relative to UNC0638 Average (G9a and GLP; all values in log base 2) [log base 2] | Substance | 3xMBT/D355N UNC Heavy (3×MBT domain of L3MBTL1; [2]) [log base 2] | 3xMBT/D355N UNC Light (3×MBT domain of L3MBTL1; [2]) [log base 2] | 3xMBT/D355N UNC Heavy (3×MBT domain of L3MBTL1; [4]) [log base 2] | 3xMBT/D355N UNC Light (3×MBT domain of L3MBTL1; [4]) [log base 2] |
| --- | --- | --- | --- | --- | --- | --- | --- | --- | --- | --- | --- |
| 0.24 | 0.11 | 0.17 | – | – | – | – | NPM1 | 1.24 | 1.27 | – | – |
| 4.51 | 0.18 | 2.35 | √✓ | – | – | – | NSUN2 | 0.25 | 2.00 | – | – |
| 0.20 | 0.04 | 0.12 | – | – | – | – | NUDT21 | 3.65 | 3.15 | – | – |
| 0.04 | 0.26 | 0.15 | – | – | – | – | PABPC1 | 2.91 | 3.44 | – | – |
| 0.11 | 0.19 | 0.15 | – | – | – | – | PCBP1 | 2.16 | 2.49 | – | – |
| – | – | – | – | 1.15 | −1.83 | −0.34 | PPP1CA | – | – | 1.51 | 0.12 |
| 0.21 | 0.95 | 0.58 | ✓ | – | – | – | PRKDC | 1.96 | 2.39 | – | – |
| 0.11 | 0.17 | 0.14 | – | – | – | – | PRPF8 | 2.51 | 2.50 | – | – |
| 0.17 | 0.15 | 0.16 | – | – | – | – | PSIP1 | 2.72 | 2.92 | – | – |
| 0.62 | −0.01 | 0.31 | – | – | – | – | PSME3 | 1.70 | 1.89 | – | – |
| 0.33 | 0.25 | 0.29 | – | – | – | – | PTBP1 | 2.61 | 3.23 | – | – |
| – | – | – | – | 0.15 | −0.14 | 0.01 | RAD50 | – | – | 2.20 | 2.08 |
| – | – | – | – | 0.32 | −0.12 | 0.10 | RDBP | – | – | 2.37 | 2.82 |
| 0.71 | 0.21 | 0.46 | ✓ | – | – | – | RECQL | 3.43 | 5.03 | – | – |
| 0.32 | 0.26 | 0.29 | – | – | – | – | RFC4 | 1.95 | 1.80 | – | – |
| – | – | – | – | 0.54 | −0.81 | −0.14 | RPTOR | – | – | 1.86 | 1.58 |
| – | – | – | – | 0.21 | −0.05 | 0.08 | SEC24C | – | – | 2.58 | 2.17 |
| 0.60 | −0.23 | 0.19 | – | – | – | – | SH3GL1 | 1.99 | 2.38 | – | – |
| 0.47 | 0.32 | 0.39 | ✓ | – | – | – | SMARCA5 | 2.49 | 2.61 | – | – |
| – | – | – | – | 0.22 | −0.01 | 0.11 | SNRNP70 | – | – | 3.26 | 3.57 |
| 0.19 | 0.26 | 0.22 | – | – | – | – | SNRNP200 | 2.08 | 3.14 | – | – |

| Substance | Relative to UNC0638 UNC Heavy (G9a and GLP; [1]) [log base 2] | Relative to UNC0638 UNC Light (G9a and GLP; [1]) [log base 2] | Relative to UNC0638 Average (G9a and GLP) [log base 2] | Candidate G9a/GLP target (G9a and GLP) | Relative to UNC0638 UNC Heavy (G9a and GLP; [3]) [log base 2] | Relative to UNC0638 UNC Light (G9a and GLP; [3]) [log base 2] | Relative to UNC0638 Average (G9a and GLP; all values in log base 2) [log base 2] | 3xMBT/D355N UNC Heavy (3×MBT domain of L3MBTL1; [2]) [log base 2] | 3xMBT/D355N UNC Light (3×MBT domain of L3MBTL1; [2]) [log base 2] | 3xMBT/D355N UNC Heavy (3×MBT domain of L3MBTL1; [4]) [log base 2] | 3xMBT/D355N UNC Light (3×MBT domain of L3MBTL1; [4]) [log base 2] |
| --- | --- | --- | --- | --- | --- | --- | --- | --- | --- | --- | --- |
| NUMA1 | 0.90 | −0.32 | 0.29 | – | – | – | – | 0.83 | 3.33 | – | – |
